# Experimental data as given in the supplement of paper PMC11908140.
# B1: library; numbered along this chain (parent)
# chain: MRKPRAAVGSGHRKQAASQEGRQKHAKNNSQAKPSACDGLARQPEEVVLQASVSSYHLFRDVAEVTAFRGSLLSWYDQEKRDLPWRRRAEDEMDLDRRAYAVWVSEVMLQQTQVATVINYYTGWMQKWPTLQDLASASLEEVNQLWAGLGYYSRGRRLQEGARKVVEELGGHMPRTAETLQQLLPGVGRYTAGAIASIAFGQATGVVDGNVARVLCRVRAIGADPSSTLVSQQLWGLAQQLVDPARPGDFNQAAMELGATVCTPQRPLCSQCPVESLCRARQRVEQEQLLASGSLSGSPDVEECAPNTGQCHLCLPPSEPWDQTLGVVNFPRKASRKPPREESSATCVLEQPGALGAQILLVQRPNSGLLAGLWEFPSVTWEPSEQLQRKALLQELQRWAGPLPATHLRHLGEVVHTFSHIKLTYQVYGLALEGQTPVTTVPPGARWLTQEEFHTAAVSTAMKKVFRVYQGQQPGTCMGSKRSQVSSPCSRKKPRMGQQVLDNFFRSHISTDAHSLNSAAQ
# Variants of: B1
# Assay: 8OG:A repair function score (normalized; synonymous = 0, nonsense = -1) (normalized log-likelihood score); higher = more repair activity (WT-like)
# Details: with 8OG:A DNA repair reporter (GFP) in HEK-293 MUTYH KO cells
# Protocol: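 Saturation mutagenesis (NNN codon scan) of the MUTYH cDNA (521-aa nuclear isoform NM_001048174.1 / NP_001041639), stably expressed under doxycycline induction in HEK-293 MUTYH knockout cells. Cells were co-transfected with an 8OG:A-bearing GFP repair reporter plus mCherry and sorted 72 h later into GFP+ and GFP− bins, three replicates per tile. The Rosace log2 enrichment (GFP+ vs GFP−) was converted per tile to a normalized function score with synonymous variants centered at 0 and nonsense variants (codons 1-471) at -1; low-abundance variants were removed.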
row,Variant,8OG:A repair function score
1,C477I,-0.0054
2,T66Y,-0.00942
3,T66V,0.00408
4,F330L,-0.149
5,A99I,-0.617
6,S105F,-1.43
7,S105M,-0.981
8,E79D,-0.145
9,E79K,0.0062
10,N517S,0.00189
11,S292D,-0.0297
12,E302M,-0.216
13,A115N,0.178
14,L109S,-0.213
15,A513P,-0.0105
16,A513S,0.00165
17,V458L,-0.294
18,N503Q,0.0112
19,V379W,-0.453
20,V379H,-0.391
21,V379E,-0.777
22,P377M,-1.07
23,P377T,-0.573
24,P320W,-0.179

row,Variant,8OG:A repair function score
1,P320R,-0.0447
2,S52T,0.00677
3,Q426C,-0.0839
4,Q426W,-0.215
5,Y151F,-0.064
6,S296A,-0.0202
7,G434H,-0.0472
8,R60G,-0.0378
9,P442S,0.00212
10,F453N,-1.25
11,A391Q,-0.0188
12,S480R,0.00162
13,R69H,-1.89
14,R246Q,-0.476
15,R246S,-0.535
16,Q386I,0.129
17,Q386W,0.351
18,Q386M,0.34
19,C278D,-1.08
20,P306I,-0.0314
21,S136Y,0.0366
22,L392R,-1.02
23,E413D,-0.00314
24,E413R,-0.0915

row,Variant,8OG:A repair function score
1,E413Y,-0.109
2,E413M,-0.375
3,R42N,0.0413
4,R42V,0.0781
5,L180S,-0.679
6,G258N,-1.2
7,S71C,-0.00534
8,M125D,-0.755
9,Q521P,-0.0312
10,V211C,-0.265
11,A461Y,-0.726
12,F504M,0.0285
13,F504S,0.0238
14,R332W,0.0485
15,R332D,-0.574
16,L49Y,-0.0309
17,L49T,0.0602
18,L49C,0.125
19,W399D,-0.666
20,W399A,-0.229
21,Q182F,-0.161
22,A67N,-0.0206
23,H514F,-0.0319
24,H514I,-0.00558

row,Variant,8OG:A repair function score
1,D96G,-0.0459
2,D96P,-0.177
3,D96W,-0.378
4,S276T,0.0017
5,H312P,-0.0124
6,H312L,0.0443
7,V214F,-0.287
8,V441T,-0.0387
9,Y76T,-1.06
10,P338K,0.0337
11,Q159V,0.0456
12,P84S,-0.324
13,R446K,-0.277
14,A41N,0.0813
15,A41L,-0.0575
16,E341I,-0.0537
17,L360A,-0.845
18,L360P,-1.26
19,R495A,-0.0255
20,Q473S,0.00408
21,Q473K,-0.0281
22,N329V,-0.246
23,Q323I,-0.141
24,G309Q,-0.105

row,Variant,8OG:A repair function score
1,L289V,-0.0422
2,L289I,0.00652
3,L73D,-1.01
4,L73S,-0.594
5,L73N,-0.718
6,G148D,-0.544
7,Q233L,0.227
8,V301I,-0.0154
9,W447V,-0.846
10,H407K,-0.104
11,H407N,0.205
12,H57W,-1.09
13,H57S,-0.711
14,R98F,-0.114
15,L72G,-1.17
16,G368C,-0.369
17,G368A,-0.292
18,L313Q,-0.328
19,T179A,-0.088
20,T179K,0.0976
21,D502F,-0.0425
22,G471S,0.0169
23,G471Y,0.0198
24,G471V,0.00448

row,Variant,8OG:A repair function score
1,Q363F,-0.479
2,L516N,0.0104
3,L516M,0.00845
4,G170W,-0.239
5,W103Y,-0.166
6,W103D,-1.19
7,P273F,-0.844
8,S54K,-0.0583
9,Y190I,-0.823
10,E141H,0.19
11,I195E,-1.06
12,R156E,-0.319
13,S419H,-0.28
14,V261A,-0.399
15,V206L,-0.338
16,N119L,-0.112
17,N119K,-0.0285
18,S227V,-0.241
19,G429F,0.209
20,Q397F,0.0272
21,T122P,0.0277
22,T263A,-0.167
23,T263G,-0.115
24,R86Q,-2.68

row,Variant,8OG:A repair function score
1,P225M,-0.186
2,W235V,-0.467
3,C269V,-1.27
4,S197K,-1
5,R398S,-0.426
6,R398E,-0.407
7,Y428P,-1.18
8,G479D,0.0194
9,V48K,0.119
10,Q498K,-0.00149
11,Q498V,0.00262
12,Y469E,-0.89
13,R88D,-0.0653
14,R88K,-0.364
15,R88P,-0.00404
16,G155A,0.037
17,S459V,-0.746
18,Q132M,-0.0607
19,W381I,0.0761
20,A245N,-0.0246
21,M173L,-0.00175
22,M173S,-0.859
23,M173V,-0.0935
